Results as given in publication PMC7588459 (Scientific Reports, 2020).

How the values were obtained:
[1] = biological target: T1, Nipah virus attachment (receptor-binding) glycoprotein (GP), wild type (Nipah virus; strain of the assayed …, UniProt Q9IH62); assay: BLI; conditions: both partners purified
T1 construct: source: HEK 293-F FreeStyle, transiently transfected, purified from supernatant (Ni-NTA)

[2] = biological target: T1, Nipah virus attachment …; assay: ELISA; conditions: both partners purified

B1: monoclonal antibody m102.4 (wild type) (antibody, V domains shown)
VH: EVQVIQSGADVKKPGSSVKVSCKSSGGTFSKYAINWVRQAPGQGLEWMGGIIPILGIANYAQKFQGRVTITTDESTSTAYMELSSLRSEDTAVYYCARGWGREQLAPHPSQYYYYYYGMDVWGQGTTVTVSS
VL: EIVMTQSPGTLSLAPGERATLSCWASQSVRNNYLAWYQQKPGQAPRLVIYNGSTRATGIPDRFSGSGSGTDFTLTISRLDPEDFAVYYCQQYGNSRRVTFGGGTKVEIK
notes: also called wild-type Nipah antibody; anti-Nipah mAb
B1 showed a Kd [1] of 0.07 ± 0.01 nM, a koff [1] of 4.53e-05 s⁻¹ and a kon [1] of 646000 M⁻¹ s⁻¹. It also gave a Kd [2] of 0.12 nM.
